Target: T1, human FLT3 (human, UniProt P36888 27-993)
T1 construct: On transfected CHO cells, or on the FLT3 positive human AML cell lines EOL-1 / MV4-11 where the row says so; also called hu FLT3; full length human FLT3
Test: FACS, scFv on CHO-human FLT3 pre-incubated with FLT3 ligand (competitor)
Experimental: The detection was performed using mouse anti-FLAG+PE-conjugated goat anti-mouse and the Fluorescence median detected by FACS (median (+ligand)/median (w/o ligand)*100%)
Afterwards cells were not washed but directly stained with FLT3 binder (scFv's). […] As negative control, cells were incubated with an unspecific scFv instead of FLT3 scFv.
For the evaluation of the data, the fluorescence median was detected by FACS.

Binder | median [+ligand]/median [w/o ligand]*100 [%]
FL-26 scFv (scFv, periplasmic prep) scFv: QVTLKESGPVLVKPTETLTLTCTVSGFSFRNARMGVSWIRQPPGKALEWLAHIFSNDEKSYSTSLKSRLTISKDTSKSQVVLTLTNMDPVDTATYFCARMPEYSSGWSGAFDIWGQGTMVTVSSGGGGSGGGGSGGGGSDIQMTQSPSSLSASVGDRVTITCRASQGIRNDLVWYQQKPGKAPKRLIYGTSTLQSGVPSRFSGSGSGTEFTLTISSLQPEDFATYYCLQHNSYPLTFGGGTKVEIK | ≥ 75
FL-25 scFv (scFv, periplasmic prep) scFv: QVTLKESGPALVKPTETLTLTCTVSGFSFRNARMGVSWIRQPPGKALEWLAHIFSNDEKSYSTSLKSRLTISKDTSKSQVVLTLTNMDPVDTATYFCARMPEYSSGWSGAFDIWGQGTMVTVSSGGGGSGGGGSGGGGSDIQMTQSPSSLSASVGDRVTITCRASQDIRDDLGWYQQKPGKAPKRLIYAASTLQSGVPSRFTGGGSGTEFTLTISSLQPEDFATYYCLQHNSFPFTFGGGTKVEIK | ≥ 75
FL-22 scFv (scFv, periplasmic prep) scFv: QVTLKESGPVLVKPTETLTLTCTVSGFSFRNARMGVSWIRQPPGKALEWLAHIFSNDEKSYSTSLKSRLTISKDTSKSQVVLTLTNMDPVDTATYFCARMPEYSSGWSGAFDIWGQGTMVTVSSGGGGSGGGGSGGGGSDIQMTQSPSSLSASVGDRVTITCRASQGISNYLAWYQQKPGKAPKRLIYAASTLQSGVPSRFSGSGSGTEFTLTISSLQPEDFATYYCLQHNTYPWTFGQGTKVEIK | ≥ 75
FL-23 scFv (scFv, periplasmic prep) scFv: QVTLKESGPALVKPTETLTLTCTVSGFSFRNARMGVSWIRQPPGKALEWLAHIFSNDEKSYSTSLKSRLTISKDTSKSQVVLTLTNMDPVDTATYFCARMPEYSSGWSGAFDIWGQGTMVTVSSGGGGSGGGGSGGGGSDIQMTQSPSSLSASVGDRVTITCRASQDIGYDLGWYQQKPGKAPKRLIYAASTLQSGVPSRFSGSGSGTEFTLIISSLQPEDFATYYCLQHNSFPWTFGQGTKVEIK | ≥ 75
FL-27 scFv (scFv, periplasmic prep) scFv: QVTLKESGPVLVKPTETLTLTCTVSGFSFRNARMGVSWIRQPPGKALEWLAHIFSNDEKSYSTSLKSRLTISKDTSKSQVVLTLTNMDPVDTATYFCARMPEYSSGWSGAFDIWGQGTMVTVSSGGGGSGGGGSGGGGSDIQMTQSPSSLSASVGDRVTITCRTSQGIRNDLVWYQQKPGKAPKRLIYAASTLQSGVPSRFSGSGSGTEFTLTISSLQPEDFATYFCLQHYSYPLTFGGGTKVEIK | ≥ 75
FL-36 scFv (scFv, periplasmic prep) scFv: QVTLKESGPTLVKPTETLTLTCTFSGFSLRYARMGVSWIRQPPGKALEWLAHIFSNDEKSYSTSLKSRLTISKDTSKSQVVLTLTNMDPVDTATYFCARMPEYSSGWSGAFDIWGQGTMVTVSSGGGGSGGGGSGGGGSDIQMTQSPSSLSASVGDRVTITCRASQDIRNDLAWYQQKPGKAPKRLIYAASSLQSGVPSRFSGSGSGTEFTLTISSLQPEDFATYYCLQHNSYPLTFGGGTKLEIK | ≥ 75
FL-28 scFv (scFv, periplasmic prep) scFv: QVTLKESGPVLVKPTETLTLTCTVSGFSFRNARMGVSWIRQPPGKALEWLAHIFSNDEKSYSTSLKSRLTISKDTSKSQVVLTLTNMDPVDTATYFCARMPEYSSGWSGAFDIWGQGTMVTVSSGGGGSGGGGSGGGGSDIQMTQSPSSLSASVGDRVTITCRASQGIGDDLGWYQQIPGKAPKRLIYATSVLQSGVPSRFSGSGSGTEFTLTISSLQPEDFATYYCLQHNSYPLTFGGGTKVEIK | ≥ 75
FL-24 scFv (scFv, periplasmic prep) scFv: QVTLKESGPALVKPTETLTLTCTVSGFSLRNVRMGVSWIRQPPGKALEWLAHIFSNDEKSYSTSLKSRLTISKDTSKSQVVLILTNMDPVDTATYFCARMPEYSSGWSGAFDIWGQGTMVTVSSGGGGSGGGGSGGGGSDIQMTQSPSSLSASVGDRVTITCRASQDIRDDLVWYQQKPGKAPKRLIYAASTLQSGVPSRFSGSGSGTEFTLTISSLQPEDFATYYCLQHHSYPWTFGQGTKVEIK | ≥ 75
FL-10 scFv (scFv, periplasmic prep) scFv: QVTLKESGPVLVKPTETLTLTCTVSGFSFRNARMGVSWIRQPPGKALEWLAHIFSNDEKSYSTSLKSRLTISKDTSKSQVVLTLTNMDPVDTATYFCARMPEYSSGWSGAFDIWGQGTMVTVSSGGGGSGGGGSGGGGSDIQMTQSPSSLSASVGDRVTITCRASQDIRDDLGWYQQKPGNAPKRLIYGASTLQSGVPSRFSGSGSGTEFTLTISSLQPEDFATYYCLQHNSYPLTFGGGTKVDIK | ≥ 75

Continued, values first:

median [+ligand]/median [w/o ligand]*100 [%] | Binder
≥ 75 | FL-37 scFv (scFv, periplasmic prep) scFv: QVTLKESGPVLVKPTETLTLTCTVSGFSLRNIKMGVSWIRQPPGKALEWLAHIFSNDEKSYSTSLKSRLTISKDTSKSQVVLTLTNMDPVDTATYFCARMPEYSSGWSGAFDIWGQGTMVTVSSGGGGSGGGGSGGGGSDIQMTQSPSSLSASVGDRVTITCRASQDISNYLAWYQQKPGKAPKRLIYAASSLQSGVPSRFSGSGSGTEFTLTISSLQPEDFATYYCLQHNSFPLTFGGGTKLEIK
≥ 75 | FL-38 scFv (scFv, periplasmic prep) scFv: QVTLKESGPVLVKPTETLTLTCTVSGFSFRNARMGVSWIRQPPGKALEWLAHIFSNDEKSYSTSLKSRLTISKDTSKSQVVLTLTNMDPVDTATYFCARMPEYSSGWSGAFDIWGQGTLVTVSSGGGGSGGGGSGGGGSDIQMTQSPSSLSASVGDRVTITCRASQGIRNDLGWYQQKPGKAPKRLIYAASSLQSGVPSRFSGSGSGTEFTLTISSLQPEDFATYYCLQHNSYPLTFGGGTKLEIK
≥ 75 | FL-44 scFv (scFv, periplasmic prep) scFv: QVTLKESGPVLVKPTETLTLTCTVSGFSFRNARMGVSWIRQPPGKCLEWLAHIFSNDEKSYSTSLKSRLTISKDTSKSQVVLTLTNMDPVDTATYFCARMPEYSSGWSGAFDIWGQGTMVTVSSGGGGSGGGGSGGGGSDIQMTQSPSSLSASVGDRVTITCRTSQGIRNDLVWYQQKPGKAPKRLIYAASTLQSGVPSRFSGSGSGTEFTLTISSLQPEDFATYFCLQHYSYPLTFGCGTKVEIK
≥ 75 | FL-43 scFv (scFv, periplasmic prep) scFv: QVTLKESGPVLVKPTETLTLTCTVSGFSFRNARMGVSWIRQPPGKCLEWLAHIFSNDEKSYSTSLKSRLTISKDTSKSQVVLTLTNMDPVDTATYFCARMPEYSSGWSGAFDIWGQGTMVTVSSGGGGSGGGGSGGGGSDIQMTQSPSSLSASVGDRVTITCRASQGIRNDLVWYQQKPGKAPKRLIYGTSTLQSGVPSRFSGSGSGTEFTLTISSLQPEDFATYYCLQHNSYPLTFGCGTKVEIK
≥ 75 | FL-52 scFv (scFv, periplasmic prep) scFv: QVTLKESGPTLVKPTETLTLTCTFSGFSLRYARMGVSWIRQPPGKCLEWLAHIFSNDEKSYSTSLKSRLTISKDTSKSQVVLTLTNMDPVDTATYFCARMPEYSSGWSGAFDIWGQGTMVTVSSGGGGSGGGGSGGGGSDIQMTQSPSSLSASVGDRVTITCRASQDIRNDLAWYQQKPGKAPKRLIYAASSLQSGVPSRFSGSGSGTEFTLTISSLQPEDFATYYCLQHNSYPLTFGCGTKLEIK

Reference: patent US20170037149A1 (Amgen, published 2017)
